The values below come from publication PMC2957411.

Series [1] deals with T1, His6-HrpL (alternative sigma factor);core RNA polymerase (Epicentre) (Dickeya dadantii 3937;) (UniProt E0SE58+P0A7Z4+P0A8V2+P0A8T7+P0A800). In words: EMSA.
The target in series [2] is T1, His6-HrpL (alternative sigma factor);core RNA polymerase (Epicentre) (Dickeya dadantii 3937;). In words: competition.

On to “AAGTATCTGCAACGGATGCCCGCTCCGATCCCGATGCGGGCATCATGATGGATACTGGTTAATGAGTGACGCCAGCGGTGAAACGGTTCCCTGCCGTCGCCGGTTCGCCGCAAAAAAAGAAACCG (double strand) [hrpN promoter fragment with hrp box]”, for which, in series [1], the binding result was “binds”.
As for “GATTTCGCTATGAACTTTGCGACTTACACAGTCATCGTGTTCATAGATTAAGTAGGAGATAATGCGAGGTGGTTCCGAAAGATATTCACTTTTTTCCCCTGGTGGTGATAACAGGATACAGCC (double strand) [hrpA promoter fragment with hrp box]”, in series [1], the binding result is on record as “binds”.
In the case of “CTTGGTGGCTGAGTCCATCTGGCCGTCGGTGATTGAGCTGATAGCATCGGTTTTCATTTTCTGCTCCTGGGCAGCGGTGGTCATCGCCGTGGTCGATGCCATGGTTTTGTCCAGAGACTGC (double strand) [hrpA ORF internal fragment (hrpAORF), no hrp box]”, the binding entry in series [2] is listed as “no binding”.
